Values quoted from earlier work as cited in paper PMC3050594.
Like-named read-outs stand apart in the source and are kept apart here.

Tests used:
[1] = molecular target: RSV F glycoprotein (Human respiratory syncytial virus) (UniProt P03420)
[2] = molecular target: RSV F glycoprotein (Human respiratory syncytial virus) (UniProt P03420); remark: listed apart in the source

Substance: palivizumab
- Kd [1]: 1.4 nM

Substance: motavizumab
- Kd [2]: 0.035 nM
